{"source": "patent US20210340530A1", "about": "(INTELLIA THERAPEUTICS, published 2021)", "binders": {"B1": {"name": "TCR-H (WT1-specific T-cell receptor) (TCR, V domains shown)", "V domain 1": "RKEVEQDPGPFNVPEGATVAFNCTYSNSASQSFFWYRQDCRKEPKLLMSVYSSGNEDGRFTAQLNRASQYISLLIRDSKLSDSATYLCVVKPDPGAGSYQLTFGKGTKLSVIP", "V domain 2": "NAGVTQTPKFRVLKTGQSMTLLCAQDMNHEYMYWYRQDPGMGLRLIHYSVGEGTTAKGEVPDGYNVSRLKKQNFLLGLESAAPSQTSVYFCASRGYHRLNNEQFFGPGTRLTVLE", "notes": "also called AV16-TCR-H"}}, "key": {"[1]": {"target": "T1, VLD-Tetramer (pMHC tetramer with WT1 peptide …)", "T1 construct": "Staining reagent; also called VLD (Wilms' tumor antigen) tetramer; TCR specific pMHC tetramer", "test": "flow cytometry, VLD-Tetramer staining of engineered T cells; TRAC RNP only", "description": "(§1) Four to 12 days after RNP nucleofection, edited T cells (200 ul/200,000 cells) were collected in a 96 well round bottom plate and spun down at 500 g for 5 minutes. Cells were then resuspended in an antibody mixture containing a combination of antibodies targeting CD3, CD4, CD8, CD45RO, CD45RA, CD27, CCR7, CD62L, and/or the TCR specific pMHC tetramer or TCR specific Vbeta chain antibody. The mixture was incubated for 45 minutes at room temperature in the dark. Samples were spun down at 500 g for 5 minutes, cell pellets collected, and resuspended in 1:10,000 DAPI (Biolegend—#422801) in FACS buffer. Flow cytometry was then performed using the cytoflex according to the manufacturer's instructions.\n(§2) T cells were evaluated with additional engineered TCRs for the impact of endogenous beta chains on pairing of both the inserted alpha chain and inserted beta chain. The experiment was performed as described herein except tetramer staining was used to measure MFI and the AAV inserts in Table 31 were used for transduction."}, "[2]": {"target": "T2, … (VLD) WT1 peptide pulsed on target cells (HLA-02.01 positive T2 cell line; OCI-AML3)", "test": "cell-based or functional assay"}, "[3]": {"target": "T1, VLD-Tetramer (pMHC tetramer with WT1 …)", "test": "flow cytometry, VLD-Tetramer staining of engineered T cells; TRAC + TRBC RNP", "description": "as §1, §2"}, "[4]": {"target": "T2, … (VLD) WT1 peptide pulsed on target …", "test": "cell-based or functional assay", "remark": "listed apart in the source"}, "[5]": {"target": "T3, … (RMF) WT1 peptide pulsed on target cells (HLA-02.01 positive T2 cell line; OCI-AML3)", "test": "cell-based or functional assay"}, "[6]": {"target": "T2, … (VLD) WT1 peptide pulsed on target …", "test": "cell-based or functional assay", "remark": "listed apart in the source"}, "[7]": {"target": "T2, … (VLD) WT1 peptide pulsed on target …", "test": "cell-based or functional assay", "remark": "listed apart in the source"}, "[8]": {"target": "T3, … (RMF) WT1 peptide pulsed on target …", "test": "cell-based or functional assay", "remark": "listed apart in the source"}, "[9]": {"target": "T2, … (VLD) WT1 peptide pulsed on target …", "test": "cell-based or functional assay", "remark": "listed apart in the source"}, "[10]": {"target": "T3, … (RMF) WT1 peptide pulsed on target …", "test": "cell-based or functional assay", "remark": "listed apart in the source"}}}
{"binder": "B1", "values": [{"measurement": "Mean % Tetramer+ (CD4+)", "setting": "[1]", "result": 71.7, "unit": "%"}, {"measurement": "Mean % Tetramer+ (CD8+)", "setting": "[1]", "result": 68.8, "unit": "%"}, {"measurement": "Mean Tetramer MFI (CD4+)", "setting": "[1]", "result": 64300, "unit": "MFI"}, {"measurement": "Mean Tetramer MFI (CD8+)", "setting": "[1]", "result": 75200, "unit": "MFI"}, {"measurement": "IL2 release; TRAC only; 0 nM VLD; T2", "setting": "[2]", "result": 102, "unit": "pg/mL"}, {"measurement": "IL2 release; TRAC only; 0.005 nM VLD; T2", "setting": "[2]", "result": 44, "unit": "pg/mL"}, {"measurement": "IL2 release; TRAC only; 0.05 nM VLD; T2", "setting": "[2]", "result": 2, "unit": "pg/mL"}, {"measurement": "IL2 release; TRAC only; 0.5 nM VLD; T2", "setting": "[2]", "result": 23, "unit": "pg/mL"}, {"measurement": "IL2 release; TRAC only; 5 nM VLD; T2", "setting": "[2]", "result": 175, "unit": "pg/mL"}, {"measurement": "IL2 release; TRAC only; 50 nM VLD; T2", "setting": "[2]", "result": 111, "unit": "pg/mL"}, {"measurement": "IL2 release; TRAC only; 500 nM VLD; T2", "setting": "[2]", "result": 387, "unit": "pg/mL"}, {"measurement": "IL2 release; TRAC/TRBC; 0 nM VLD; T2", "setting": "[2]", "result": 17, "unit": "pg/mL"}, {"measurement": "IL2 release; TRAC/TRBC; 0.005 nM VLD; T2", "setting": "[2]", "result": 15, "unit": "pg/mL"}, {"measurement": "IL2 release; TRAC/TRBC; 0.05 nM VLD; T2", "setting": "[2]", "result": 40, "unit": "pg/mL"}, {"measurement": "IL2 release; TRAC/TRBC; 0.5 nM VLD; T2", "setting": "[2]", "result": 17, "unit": "pg/mL"}, {"measurement": "IL2 release; TRAC/TRBC; 5 nM VLD; T2", "setting": "[2]", "result": 30, "unit": "pg/mL"}, {"measurement": "IL2 release; TRAC/TRBC; 50 nM VLD; T2", "setting": "[2]", "result": 286, "unit": "pg/mL"}, {"measurement": "IL2 release; TRAC/TRBC; 500 nM VLD; T2", "setting": "[2]", "result": 455, "unit": "pg/mL"}, {"measurement": "Mean % Tetramer+ (CD4+)", "setting": "[3]", "result": 80.2, "unit": "%"}, {"measurement": "Mean % Tetramer+ (CD8+)", "setting": "[3]", "result": 77.1, "unit": "%"}, {"measurement": "Mean Tetramer MFI (CD4+)", "setting": "[3]", "result": 131000, "unit": "MFI"}, {"measurement": "Mean Tetramer MFI (CD8+)", "setting": "[3]", "result": 139000, "unit": "MFI"}, {"measurement": "Caspase 3/7 integrated intensity; TRAC only; 0 nM VLD; T2", "setting": "[4]", "result": 6560}, {"measurement": "Caspase 3/7 integrated intensity; TRAC only; 0.005 nM VLD; T2", "setting": "[4]", "result": 7650}, {"measurement": "Caspase 3/7 integrated intensity; TRAC only; 0.05 nM VLD; T2", "setting": "[4]", "result": 23600}, {"measurement": "Caspase 3/7 integrated intensity; TRAC only; 0.5 nM VLD; T2", "setting": "[4]", "result": 550000}, {"measurement": "Caspase 3/7 integrated intensity; TRAC only; 5 nM VLD; T2", "setting": "[4]", "result": 992000}, {"measurement": "Caspase 3/7 integrated intensity; TRAC only; 50 nM VLD; T2", "setting": "[4]", "result": "1.08e+06"}, {"measurement": "Caspase 3/7 integrated intensity; TRAC only; 500 nM VLD; T2", "setting": "[4]", "result": "1.18e+06"}, {"measurement": "Caspase 3/7 integrated intensity; TRAC/TRBC; 0 nM VLD; T2", "setting": "[4]", "result": 7390}, {"measurement": "Caspase 3/7 integrated intensity; TRAC/TRBC; 0.005 nM VLD; T2", "setting": "[4]", "result": 9820}, {"measurement": "Caspase 3/7 integrated intensity; TRAC/TRBC; 0.05 nM VLD; T2", "setting": "[4]", "result": 32400}, {"measurement": "Caspase 3/7 integrated intensity; TRAC/TRBC; 0.5 nM VLD; T2", "setting": "[4]", "result": 628000}, {"measurement": "Caspase 3/7 integrated intensity; TRAC/TRBC; 5 nM VLD; T2", "setting": "[4]", "result": 984000}, {"measurement": "Caspase 3/7 integrated intensity; TRAC/TRBC; 50 nM VLD; T2", "setting": "[4]", "result": "1.08e+06"}, {"measurement": "Caspase 3/7 integrated intensity; TRAC/TRBC; 500 nM VLD; T2", "setting": "[4]", "result": "1.18e+06"}, {"measurement": "Caspase 3/7 integrated intensity; TRAC only; 500 nM RMF; T2", "setting": "[5]", "result": 4190}, {"measurement": "Caspase 3/7 integrated intensity; TRAC/TRBC; 500 nM RMF; T2", "setting": "[5]", "result": 3890}, {"measurement": "IFN-gamma release; TRAC/TRBC; 50 nM VLD; T2", "setting": "[6]", "result": 16100}, {"measurement": "IFN-gamma release; TRAC/TRBC; 500 nM VLD; T2", "setting": "[6]", "result": 24400}, {"measurement": "IFN-gamma release; only TRAC; 50 nM VLD; T2", "setting": "[6]", "result": 15900}, {"measurement": "IFN-gamma release; only TRAC; 500 nM VLD; T2", "setting": "[6]", "result": 24300}, {"measurement": "% CD4+ TNFa+ IFNg+; TRAC/TRBC; 0 nM VLD; T2", "setting": "[7]", "result": 3.1, "unit": "%"}, {"measurement": "% CD4+ TNFa+ IFNg+; TRAC/TRBC; 0.005 nM VLD; T2", "setting": "[7]", "result": 2.1, "unit": "%"}, {"measurement": "% CD4+ TNFa+ IFNg+; TRAC/TRBC; 0.05 nM VLD; T2", "setting": "[7]", "result": 3, "unit": "%"}, {"measurement": "% CD4+ TNFa+ IFNg+; TRAC/TRBC; 0.5 nM VLD; T2", "setting": "[7]", "result": 4.4, "unit": "%"}, {"measurement": "% CD4+ TNFa+ IFNg+; TRAC/TRBC; 5 nM VLD; T2", "setting": "[7]", "result": 6, "unit": "%"}, {"measurement": "% CD4+ TNFa+ IFNg+; TRAC/TRBC; 50 nM VLD; T2", "setting": "[7]", "result": 6.9, "unit": "%"}, {"measurement": "% CD8+ TNFa+ IFNg+; TRAC/TRBC; 0 nM VLD; T2", "setting": "[7]", "result": 0.5, "unit": "%"}, {"measurement": "% CD8+ TNFa+ IFNg+; TRAC/TRBC; 0.005 nM VLD; T2", "setting": "[7]", "result": 3.7, "unit": "%"}, {"measurement": "% CD8+ TNFa+ IFNg+; TRAC/TRBC; 0.05 nM VLD; T2", "setting": "[7]", "result": 27.1, "unit": "%"}, {"measurement": "% CD8+ TNFa+ IFNg+; TRAC/TRBC; 0.5 nM VLD; T2", "setting": "[7]", "result": 48.7, "unit": "%"}, {"measurement": "% CD8+ TNFa+ IFNg+; TRAC/TRBC; 5 nM VLD; T2", "setting": "[7]", "result": 67.5, "unit": "%"}, {"measurement": "% CD8+ TNFa+ IFNg+; TRAC/TRBC; 50 nM VLD; T2", "setting": "[7]", "result": 79.2, "unit": "%"}, {"measurement": "% CD4+ TNFa+ IFNg+; TRAC/TRBC; 50 nM RMF; T2", "setting": "[8]", "result": 2.9, "unit": "%"}, {"measurement": "% CD8+ TNFa+ IFNg+; TRAC/TRBC; 50 nM RMF; T2", "setting": "[8]", "result": 0.6, "unit": "%"}, {"measurement": "% CD4+ CD107a+; TRAC/TRBC; 0 nM VLD; T2", "setting": "[9]", "result": 3.42, "unit": "%"}, {"measurement": "% CD4+ CD107a+; TRAC/TRBC; 0.005 nM VLD; T2", "setting": "[9]", "result": 3.63, "unit": "%"}, {"measurement": "% CD4+ CD107a+; TRAC/TRBC; 0.05 nM VLD; T2", "setting": "[9]", "result": 4.48, "unit": "%"}, {"measurement": "% CD4+ CD107a+; TRAC/TRBC; 0.5 nM VLD; T2", "setting": "[9]", "result": 6.82, "unit": "%"}, {"measurement": "% CD4+ CD107a+; TRAC/TRBC; 5 nM VLD; T2", "setting": "[9]", "result": 8.09, "unit": "%"}, {"measurement": "% CD4+ CD107a+; TRAC/TRBC; 50 nM VLD; T2", "setting": "[9]", "result": 8.28, "unit": "%"}, {"measurement": "% CD8+ CD107a+; TRAC/TRBC; 0 nM VLD; T2", "setting": "[9]", "result": 2.29, "unit": "%"}, {"measurement": "% CD8+ CD107a+; TRAC/TRBC; 0.005 nM VLD; T2", "setting": "[9]", "result": 5.05, "unit": "%"}, {"measurement": "% CD8+ CD107a+; TRAC/TRBC; 0.05 nM VLD; T2", "setting": "[9]", "result": 23.6, "unit": "%"}, {"measurement": "% CD8+ CD107a+; TRAC/TRBC; 0.5 nM VLD; T2", "setting": "[9]", "result": 45.6, "unit": "%"}, {"measurement": "% CD8+ CD107a+; TRAC/TRBC; 5 nM VLD; T2", "setting": "[9]", "result": 60.7, "unit": "%"}, {"measurement": "% CD8+ CD107a+; TRAC/TRBC; 50 nM VLD; T2", "setting": "[9]", "result": 70.5, "unit": "%"}, {"measurement": "% CD4+ CD107a+; TRAC/TRBC; 50 nM RMF; T2", "setting": "[10]", "result": 3.7, "unit": "%"}, {"measurement": "% CD8+ CD107a+; TRAC/TRBC; 50 nM RMF; T2", "setting": "[10]", "result": 2.64, "unit": "%"}]}
